# Reference: publication PMC2665237
# Numbering of substitutions follows the chain as printed. Like-named read-outs stand apart in the source and are kept apart here.
# T1: LGP2 RD wt (human, UniProt Q96C10 537-678)
# T1 sequence: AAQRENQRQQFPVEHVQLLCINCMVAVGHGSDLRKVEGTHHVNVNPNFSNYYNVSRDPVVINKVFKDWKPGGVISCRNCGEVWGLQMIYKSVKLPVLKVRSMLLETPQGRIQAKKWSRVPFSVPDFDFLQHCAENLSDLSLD
# T2: LGP2 RD P606K (human, UniProt Q96C10 537-678, P606K)
# T2 sequence: T1 sequence with P70K
# T3: LGP2 RD W604A (human, UniProt Q96C10 537-678, W604A)
# T3 sequence: T1 sequence with W68A
# T4: LGP2 RD H576Y (human, UniProt Q96C10 537-678, H576Y)
# T4 sequence: T1 sequence with H40Y
# T5: LGP2 RD K626E (human, UniProt Q96C10 537-678, K626E)
# T5 sequence: T1 sequence with K90E
# T6: LGP2 RD K605E (human, UniProt Q96C10 537-678, K605E)
# T6 sequence: T1 sequence with K69E
# T7: LGP2 RD K634E (human, UniProt Q96C10 537-678, K634E)
# T7 sequence: T1 sequence with K98E
# T8: LGP2 RD N583D (human, UniProt Q96C10 537-678, N583D)
# T8 sequence: T1 sequence with N47D
# T9: LGP2 RD L621A (human, UniProt Q96C10 537-678, L621A)
# T9 sequence: T1 sequence with L85A
# B1: 5'PPP dsRNA 19 bp (dsRNA)
# RNA 1: GCAUGCGACCUCUGUUUGA
# RNA 2: UCAAACAGAGGUCGCAUGC
# modifications: 5'-triphosphate on sense strand
# B2: 25 bp dsRNA (dsRNA)
# RNA 1: GCUUGUCGGGAGCGCCACCCUCUGC
# RNA 2: GCAGAGGGUGGCGCUCCCGACAAGC
# B3: 5'OH dsRNA 19 bp (dsRNA)
# RNA 1: GCAUGCGACCUCUGUUUGA
# RNA 2: UCAAACAGAGGUCGCAUGC
# Tests used:
# [1] = target: T1, LGP2 RD wt; assay: competition
# [2] = target: T2, LGP2 RD P606K; assay: fluorescence anisotropy
# [3] = target: T3, LGP2 RD W604A; assay: fluorescence anisotropy
# [4] = target: T4, LGP2 RD H576Y; assay: fluorescence anisotropy
# [5] = target: T5, LGP2 RD K626E; assay: fluorescence anisotropy
# [6] = target: T6, LGP2 RD K605E; assay: fluorescence anisotropy
# [7] = target: T7, LGP2 RD K634E; assay: fluorescence anisotropy
# [8] = target: T8, LGP2 RD N583D; assay: fluorescence anisotropy
# [9] = target: T9, LGP2 RD L621A; assay: fluorescence anisotropy
# [10] = target: T1, LGP2 RD wt; assay: fluorescence anisotropy
# [11] = target: T1, LGP2 RD wt; assay: competition; remark: listed apart in the source
binder,measurement,setting,value
B1,binding result,[1],binds
B2,Kd,[2],230 ± 10 nM
same,Kd,[3],136 ± 6 nM
same,Kd,[4],304 ± 10 nM
same,Kd,[5],51 ± 5 nM
same,Kd,[6],140 ± 16 nM
same,binding result,[7],no binding
same,Kd,[8],38 ± 4 nM
same,Kd,[9],165 ± 26 nM
same,Kd,[10],68 ± 6 nM
B3,binding result,[11],binds
